Experimental data as given in the supplement of paper PMC7125110.
± gives the standard error. This sample holds only a part of the variants without activity.

B1: glmS ribozyme (parent)
chain: AUAAAAGCGCCAGAACUACAGAAAUGUAGUUGACGAGGAGGAGGUUUAUCGAAUUUUCGGCGGAUGCCUCCAAA

Legend:
Settings in all cases: with glucosamine-6-phosphate
glucosamine-6-phosphate [1] = variants of: B1; assay: self-cleavage kobs at 40 uM GlcN6P; higher = faster cleavage; RNA array
Procedure, shortened: (§1)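 Ribozyme variants carrying barcodes were transcribed in situ on sequenced MiSeq chips by E. coli RNA polymerase and tracked at 37 °C with a hybridised Cy3 probe. They were exposed to 40 μM to 10 mM glucosamine-6-phosphate in HEPES/KCl/Mg(OAc)2 buffer. kobs came from exponential decay fits of normalised per-tile medians, and kcat and KM from weighted Michaelis–Menten fits.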

glucosamine-6-phosphate [2] = variants of: B1; assay: self-cleavage kobs at 160 uM GlcN6P; higher = faster cleavage; RNA array
Procedure, shortened: as §1

glucosamine-6-phosphate [3] = variants of: B1; assay: self-cleavage kobs at 10000 uM GlcN6P; higher = faster cleavage; RNA array
Procedure, shortened: as §1

glucosamine-6-phosphate [4] = variants of: B1; assay: self-cleavage kobs at 640 uM GlcN6P; higher = faster cleavage; RNA array
Procedure, shortened: as §1

glucosamine-6-phosphate [5] = variants of: B1; assay: self-cleavage kobs at 2500 uM GlcN6P; higher = faster cleavage; RNA array
Procedure, shortened: as §1

Variant | self-cleavage kobs at 40 uM GlcN6P (glucosamine-6-phosphate [1]) [s⁻¹] | self-cleavage kobs at 160 uM GlcN6P (glucosamine-6-phosphate [2]) [s⁻¹] | self-cleavage kobs at 10000 uM GlcN6P (glucosamine-6-phosphate [3]) [s⁻¹] | self-cleavage kobs at 640 uM GlcN6P (glucosamine-6-phosphate [4]) [s⁻¹] | self-cleavage kobs at 2500 uM GlcN6P (glucosamine-6-phosphate [5]) [s⁻¹]
C8G A15G A39G C67G | < 1e-05 |  |  |  | 
A12G G63U | < 1e-05 | < 1e-05 | < 1e-05 |  | 
C10G G59C | < 1e-05 |  |  | < 1e-05 | 
G35U A64C | < 1e-05 | < 1e-05 | < 1e-05 | < 1e-05 | < 1e-05
U31C G41U U45G C70G | 3.43e-05 ± 1.6e-05 |  | 0.000585 ± 0.00013 |  | 
U69C C71A | 5.28e-05 ± 2.1e-05 | 0.000113 ± 1.9e-05 |  | 0.000587 ± 8.4e-05 | 0.000478 ± 9.3e-05
A6G A42G C50A U54C C70G | < 1e-05 | < 1e-05 | < 1e-05 | < 1e-05 | < 1e-05
A12C A33U A53U C68A A73C | < 1e-05 |  |  |  | 
A12G A42C U46C C61G | < 1e-05 |  | < 1e-05 |  | 
A15U G32A A42C U54C U56G G63A | < 1e-05 |  |  |  | 
G37A G38U C71U | < 1e-05 |  |  |  | 
C11U A48C | < 1e-05 | < 1e-05 | < 1e-05 | < 1e-05 | < 1e-05
C11U G63A | < 1e-05 | < 1e-05 | < 1e-05 | < 1e-05 | < 1e-05
A6G G60U | < 1e-05 | < 1e-05 |  | < 1e-05 | 
G44A U45C A48U | < 1e-05 |  |  |  | 
A53G U57C G63U | < 1e-05 |  | < 1e-05 |  | 
C50U G62U | < 1e-05 |  | < 1e-05 |  | 
C11A G29U G32U G44A | < 1e-05 |  |  |  | 
G7A G44C A48U C68U | < 1e-05 |  | < 1e-05 |  | 
C50A G63U | < 1e-05 | < 1e-05 | < 1e-05 | < 1e-05 | 
A6C U57G | < 1e-05 |  |  | < 1e-05 | 
C8G U49A U54C G59U C67A | < 1e-05 | < 1e-05 | < 1e-05 | < 1e-05 | < 1e-05
U31G A39G A53G | 0.000493 ± 0.00012 |  |  | 0.00385 ± 0.0009 | 0.0115 ± 0.0049
U49G G51A G63A | < 1e-05 |  | < 1e-05 |  | 
